Measurements: patent US20100222258A1 (KABUSHIKI KAISHA HAYASHIBARA SEIBUTSU KAGAKU KENKYUJO, published 2010)
Numbering of substitutions follows the chain as printed. Blank lines part the entries; values can stand above or below the binder they belong to.

Tests used:
[1] = target: T1, TNF-R1 (a protein having the amino acid sequence, Accession No. M58286 registered at GENBANK) (UniProt P19438 30-211, limits assumed); assay: SPR (BIACORE 2000), receptor on sensor tip; grade 3 = 0.5 to 2 times that of recombinant TNF-α
T1 construct: also called TNF receptor having a molecular weight of 55 kilo daltons
T1 sequence (looked up): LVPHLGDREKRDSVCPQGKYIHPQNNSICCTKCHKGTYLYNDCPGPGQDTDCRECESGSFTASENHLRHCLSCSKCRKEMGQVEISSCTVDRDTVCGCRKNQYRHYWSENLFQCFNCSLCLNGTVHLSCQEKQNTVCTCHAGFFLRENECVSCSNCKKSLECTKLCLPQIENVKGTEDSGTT
Excerpt: (§1) Using the above detector based on surface plasmon resonance effect again, the resulting clones binding to TNF-R1 (or TNF-R2) were subjected to the remaining sensor tip conjugated with TNF-R2 (or TNF-R1) to measure receptor binding affinity and select clones having a variation of receptor binding affinity. […] The resulting DNAs were digested with restrict enzymes NdeI and BamHI to obtain DNA fragments. The resulting DNA fragments were introduced into a plasmid vector containing T7 promoter region, T7 terminator region, ampicillin resistant gene region and ColE1/Ori region (product name “pET-3a”, manufactured by “Novagen®” (EMD Biosciences, Inc.)) at the position of the above restriction sites. The resulting plasmid was introduced into E. coli BL21DE3 strain to obtain a transformed E. coli for producing the TNF mutant proteins. The obtained transformed E. coli was cultured according to usual method and centrifuged to collect E. coli pellet. The resulting pellet was washed twice with TES buffer (pH 8.0) (20 mM Tris-HCl, 10 mM ethylene diamine tetraacetic acid and 0.5 M sodium chloride) and admixed with TES buffer (pH 8.0) containing 0.2 mg/ml lysozyme. The resulting suspension was sonicated according to usual manner, and centrifuged to collect a precipitate containing the produced TNF mutant protein. The resulting precipitate was treated three times in a manner of admixing with TES buffer containing 1 (w/w) % Triton X-100, removed from supernatant by centrifuging, admixed with 50 mM Tris-HCl (pH 7.0) containing 8 M guanidine hydrochloride and 50 mM dithiothreitol, with stirring for 16 hours at ambient temperature under shielded condition, and centrifuged to collect a supernatant. The resulting supernatant was gently admixed with 100 time volumes of a aqueous solution containing 1 M Tris, 0.9 (w/v) % sodium chloride, 0.4 M L-arginine chloride, 2.5 mM reduced glutathione, 0.5 mM oxidized glutathione and 0.05 (w/v) % Tween 20, and kept at 4° C. for 16 hours.

[2] = target: T2, TNF-R2 (a protein having the amino acid sequence, Accession No. M55994 registered at GENBANK) (UniProt P20333 23-257, limits assumed); assay: SPR (BIACORE 2000), receptor on sensor tip; grade 1 = 0.001 to 0.1 time that of recombinant TNF-α
T2 construct: also called TNF receptor with 75 kilo daltons
T2 sequence (looked up): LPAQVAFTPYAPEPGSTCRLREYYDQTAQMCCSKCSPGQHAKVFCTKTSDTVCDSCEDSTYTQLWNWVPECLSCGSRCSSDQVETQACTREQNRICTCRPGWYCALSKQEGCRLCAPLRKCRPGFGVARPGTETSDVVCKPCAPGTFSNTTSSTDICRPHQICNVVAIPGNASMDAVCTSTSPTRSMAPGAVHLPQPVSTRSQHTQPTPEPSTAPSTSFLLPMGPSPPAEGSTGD
Excerpt: as §1

[3] = target: T1, TNF-R1 (a protein having the amino acid …); assay: SPR (BIACORE 2000), receptor on sensor tip; grade 4 = two times or more that of recombinant TNF-α
Excerpt: as §1

[4] = target: T3, TNF-R1 on HEp-2 cells (human, UniProt P19438 30-455); assay: cell-based or functional assay
T3 sequence (looked up): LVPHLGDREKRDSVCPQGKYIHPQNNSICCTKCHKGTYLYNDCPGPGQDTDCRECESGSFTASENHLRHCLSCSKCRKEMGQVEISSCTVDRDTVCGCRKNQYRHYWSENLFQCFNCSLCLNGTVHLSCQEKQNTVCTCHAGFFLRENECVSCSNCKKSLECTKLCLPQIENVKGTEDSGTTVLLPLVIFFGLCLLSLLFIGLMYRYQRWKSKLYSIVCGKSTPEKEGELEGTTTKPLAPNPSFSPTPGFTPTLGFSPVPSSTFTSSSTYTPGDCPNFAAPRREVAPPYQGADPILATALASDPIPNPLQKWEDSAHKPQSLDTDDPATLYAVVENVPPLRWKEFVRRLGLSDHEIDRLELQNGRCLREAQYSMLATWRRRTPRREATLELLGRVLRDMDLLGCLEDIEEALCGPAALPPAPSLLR

[5] = target: T4, TNF-R1 on L-M cells (mouse, UniProt P25118 30-454); assay: cell-based or functional assay
T4 sequence (looked up): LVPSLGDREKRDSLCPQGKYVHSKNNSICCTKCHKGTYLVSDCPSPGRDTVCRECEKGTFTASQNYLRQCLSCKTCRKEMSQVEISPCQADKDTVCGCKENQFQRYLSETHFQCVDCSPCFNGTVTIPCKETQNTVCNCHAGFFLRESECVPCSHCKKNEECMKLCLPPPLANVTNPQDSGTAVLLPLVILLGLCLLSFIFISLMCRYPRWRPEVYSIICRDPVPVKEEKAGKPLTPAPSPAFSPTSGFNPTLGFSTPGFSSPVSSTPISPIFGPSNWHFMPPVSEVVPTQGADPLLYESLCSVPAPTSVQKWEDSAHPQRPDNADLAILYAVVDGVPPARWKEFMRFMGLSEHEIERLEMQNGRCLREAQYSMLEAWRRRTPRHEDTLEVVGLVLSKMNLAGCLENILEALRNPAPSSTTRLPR

binding affinity relative to recombinant TNF-α [1]: 0.5 to 2 fold
binding affinity relative to recombinant TNF-α [2]: 0.001 to 0.1 fold
B3: TNF mutant protein of clone No. 37 (ligand)
chain: VRSSSRTPSDMPVAHVVANPQAEGQLQWLNRRANALLANGVELRDNQLVVPSEGLYLIYSQVLFSGQGCPSTHVLLTHTISRISTTHNQPVNLLSAIRSPCQRETPEGAEANPWYEPIYLGGVFQLEPGDRLSAEINRPDYLDFAESGQVYFGIIAL
notes: Mutant of lysine-replaced TNF, made in E. coli; also called TNF antagonist of clone No. 37
Viability (%) of HEp-2 cells, 10 ng/ml TNF-α + 1,000 ng/ml TNF antagonist (9 without antagonist) [4]: 11%
Viability (%) of HEp-2 cells, 10 ng/ml TNF-α + 10,000 ng/ml TNF antagonist (9 without antagonist) [4]: 18%
Viability (%) of HEp-2 cells, 10 ng/ml TNF-α + 100,000 ng/ml TNF antagonist (9 without antagonist) [4]: 43%
Viability (%) of HEp-2 cells, 10 ng/ml TNF-α + 500,000 ng/ml TNF antagonist (9 without antagonist) [4]: 75%
Viability (%) of L-M cells, 10 ng/ml TNF-α + 1,000 ng/ml TNF antagonist (17 without antagonist) [5]: 42%
Viability (%) of L-M cells, 10 ng/ml TNF-α + 10,000 ng/ml TNF antagonist (17 without antagonist) [5]: 51%
Viability (%) of L-M cells, 10 ng/ml TNF-α + 100,000 ng/ml TNF antagonist (17 without antagonist) [5]: 59%
Viability (%) of L-M cells, 10 ng/ml TNF-α + 500,000 ng/ml TNF antagonist (17 without antagonist) [5]: 72%

binding affinity relative to recombinant TNF-α [2]: 0.001 to 0.1 fold
binding affinity relative to recombinant TNF-α [3]: ≥ 2 fold
B5: TNF mutant protein of clone No. 26 (ligand)
chain: B3 chain with T85S, T86H, H87Y, N88R, Q89F
notes: Mutant of lysine-replaced TNF, made in E. coli

binding affinity relative to recombinant TNF-α [1]: 0.5 to 2 fold
binding affinity relative to recombinant TNF-α [2]: 0.001 to 0.1 fold
B9: TNF mutant protein of clone No. 28 (ligand)
chain: B3 chain with S84T, T85K, T86S, H87Y, N88S, Q89K
notes: as for B5

Further lines, the binder ahead of its results:

B1: TNF mutant protein of clone No. 1 (ligand)
chain: B3 chain with L29Q, R32W, S84A, T85V, T86S, H87Y, N88Q, Q89T
notes: as for B5
binding affinity relative to recombinant TNF-α [1]: 0.5 to 2 fold
binding affinity relative to recombinant TNF-α [2]: 0.001 to 0.1 fold

B2: TNF mutant protein of clone No. 19 (ligand)
chain: B3 chain with T85Y, T86N, H87Y, Q89G
notes: as for B5
binding affinity relative to recombinant TNF-α [2]: 0.001 to 0.1 fold
binding affinity relative to recombinant TNF-α [3]: ≥ 2 fold

B4: TNF mutant protein of clone No. 3 (ligand)
chain: B3 chain with R31S, R32D, S84A, T85V, T86S, H87Y, N88Q, Q89T, E146A, S147R
notes: as for B5
binding affinity relative to recombinant TNF-α [1]: 0.5 to 2 fold
binding affinity relative to recombinant TNF-α [2]: 0.001 to 0.1 fold

B6: TNF mutant protein of clone No. 18 (ligand)
chain: B3 chain with T85P, T86L, H87Y, N88P, Q89K
notes: as for B5
binding affinity relative to recombinant TNF-α [2]: 0.001 to 0.1 fold
binding affinity relative to recombinant TNF-α [3]: ≥ 2 fold

B7: TNF mutant protein of clone No. 22 (ligand)
chain: B3 chain with T85R, T86V, H87Y, N88T, Q89A
notes: as for B5
binding affinity relative to recombinant TNF-α [1]: 0.5 to 2 fold
binding affinity relative to recombinant TNF-α [2]: 0.001 to 0.1 fold

B8: TNF mutant protein of clone No. 23 (ligand)
chain: B3 chain with S84T, T86A, H87Y, N88S, Q89G
notes: as for B5
binding affinity relative to recombinant TNF-α [2]: 0.001 to 0.1 fold
binding affinity relative to recombinant TNF-α [3]: ≥ 2 fold
